# PMC9250616 (2022)
# B1: CMG2 (protein)
# chain: QEQPSCRRAFDLYFVLDKSGSVANNWIEIYNFVQQLAERFVSPEMRLSFIVFSSQATIILPLTGDRGKISKGLEDLKRVSPVGETYIHEGLKLANEQIQKAGGLKTSSIIIALTDGKLDGLVPSYAEKEAKISRSLGASVYCVGVLDFEQAQLERIADSKEQVFPVKGGFQALKGIINSILAQSCTEILELQPSSVCVGEEFQIVLSGRGFMLGSRNGSVLCTYTVNETYTTSVKPVSVQLNSMLCPAPILNKAGETLDVSVSFNGGKSVISGSLIVTATECSNG
# Target: T1, Protective antigen (Bacillus anthracis, UniProt P13423)
# T1 chain: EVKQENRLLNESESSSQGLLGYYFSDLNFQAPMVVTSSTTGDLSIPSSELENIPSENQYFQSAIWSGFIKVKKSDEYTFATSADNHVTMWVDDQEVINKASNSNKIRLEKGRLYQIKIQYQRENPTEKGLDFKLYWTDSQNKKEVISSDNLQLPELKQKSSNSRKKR
binder,measurement,value
B1,Kd,0.46 nM
